Results reported in patent US6825165B1, “Betacellulin modification” (Takeda Chemical Industries, Ltd., priority 1998, dated 2004).

Experiments:
[1] = system: PLAP expression AR42J cells; assay: Selection of PLAP expression AR42J clones: alkaline phosphatase activity with and without betacellulin; type: cell-based; details: 20 ng/mL Met-80 residue betacellulin, 4 days culture
Protocol: (§1) The differentiation promoting activity into β cells was also determined using AR42J cells transformed with the vector having alkaline phosphatase which had been ligated as a reporter downstream of the insulin promoter. Specifically, cells which have differentiated into β cells by addition of betacellulin produce alkaline phosphatase. As a result, by assaying the alkaline phosphatase activity, the differentiation promoting activity into β cells can be quantitatively assayed.
The pMCneopolyA plasmid (Stratagene) containing the neor gene of TnS and the PLAP expression plasmid pTB1898 were simultaneously introduced into AR42J cells using the transfection reagent TransIT™-LT1 (Mirus, PenVera Corporation). The plasmid introduced cells were then cultured for 2 days in DMEM supplemented with 10% fetal calf serum, and the culture was then continued in selection medium supplemented with 800 μg/mL G418 (geneticin, Gibco BRL). Clones were isolated by limiting dilution of cells growing with G418 resistance.
Cells of each clone were seeded to 24 well plates and cultured for 4 days with and without the addition of 20 ng/mL Met-80 residue betacellulin. The supernatant was collected and heat treated for 30 minutes at 65° C., and the alkaline phosphatase activity in the media was then assayed. Clones showing increased alkaline phosphatase activity with the addition of 80-residue betacellulin were selected.

[2] = system: AR42J cells; assay: β cell differentiation promoting activity using AR42J cells (anti-insulin immunofluorescence), Example 9; type: cell-based; details: 5 days incubation, anti-insulin antibody/FITC staining (FIG. 5)
Description: Cells of the AR42J cell line derived from pancreatic cancer induced by chemical carcinogens (Christophe, Am. J. Physiol., 266: G963 (1994)) were suspended to a concentration of 10^5 cells/mL using Dulbecco's modified Eagle MEM medium containing 10% fetal calf serum and the Met-77 residue betacellulin prepared in Example 3, the Met-76 residue betacellulin prepared in Example 6, or the Met-80 residue betacellulin prepared in accordance with the method in Japanese Unexamined Patent Application (Kokai) H10-191989. 500 μL of these suspensions were inoculated to chamber slides and incubated for 5 days at 37° C. in carbon dioxide gas incubators (5% carbon dioxide gas, 95% air). After 5 days, the cells were washed once with PBS, fixed in 10% formaldehyde, and treated for 5 min with 0.1% Triton X-100. Block Ace (Snow Brand, Japan) was then added for 40 minutes of blocking at room temperature. Anti-insulin antibodies (by Advanced Immunochemicals) diluted with 10% Block Ace were added, and a reaction was performed for 40 minutes at room temperature. 0.1% Triton X-100 was added, the reaction solution was allowed to stand for 5 minutes at room temperature, and the cells were then washed three times with PBS. FITC (fluorescein isothiocyanate) labeled anti-mouse IgG antibodies (Cappel) diluted with 10% Block Ace were added, and a reaction was brought about for 40 minutes. 0.1% Triton X-100 was added, the reaction solution was allowed to stand for 5 minutes, the cells were then washed three times with PBS, and they were then observed under a fluorescent microscope.

[3] = molecular target: T1, EGF receptor (A431 cells, high EGF receptor expression line) (Homo sapiens, UniProt P00533); assay: EGF binding assay using A431 cells (inhibition of 125I-EGF binding); details: for IC50: A431 cells, 0.25 nM 125I-EGF, 90 minutes at 4° C.; for EGF/BTC relative to Met-BTC80: ratio between EGF activity and BTC activity, Met-BTC80 = 100%
T1 construct: human squamous epithelial carcinoma cells A431 (high EGF receptor expression line); endogenous in cells; host or cells: A431 human squamous epithelial carcinoma cells (intact, adherent)
Protocol: Cell growth promoting activity was assayed by means of the inhibiting activity of binding to ^125I-EGF using human squamous epithelial carcinoma cells A431 (high EGF receptor expression line).
Specifically, 100 μL of A431 cells suspended to a concentration of 10^5 cells/mL using Dulbecco's modified Eagle MEM (DMEM) medium supplemented with 10% fetal calf serum were inoculated to 96 well plates and cultured for 2 days at 37° C. in carbon dioxide gas incubators (5% carbon dioxide gas and 95% air). […] The mixtures were allowed to stand for 90 minutes at 4° C., and then washed 3 times with 200 μL of binding medium, and the cells were lysed in 200 μL of 0.1 N sodium hydroxide aqueous solution containing 1% SDS. The cell lysate was then transferred to scintillation vials, 1 mL of Scintillator A (Wako Pure Chemicals) was added, and the inhibiting activity of binding to ^125I-EGF was assayed with a scintillation counter.

[4] = system: PLAP expression AR42J cells; assay: β cell differentiation promoting activity using human placenta alkaline phosphatase expression AR42J cells, Example 20; type: cell-based; details: 5 days incubation, read-out: BTC activity EC50
Protocol: 100 μL of these suspensions were inoculated to 96 well plates and incubated for 5 days at 37° C. in carbon dioxide gas incubators (5% carbon dioxide gas, 95% air). After 5 days, the culture supernatant were treated for 30 minutes at 65° C., and 50 μL was then added to 96-well microplates containing 50 μL of 2×SEAP (2M diethanolamine, 1 mM MgCl2, 20 mM homoarginine). 10 μL of 20 mg/mL p-nitrophenylphosphoric acid (Sigma) was added, and a reaction was brought about for 16 hours at 37° C. The ratio between EGF activity and the BTC activity of all the muteins decreased to about 5% of that of the Met-80 residue betacellulin, and was about the same as that of the Met-76 residue betacellulin, with no apparent influence by the N terminal deletion.

[5] = system: PLAP expression AR42J cells; assay: β cell differentiation promoting activity using PLAP expression AR42J cells, Example 12; type: cell-based; details: 5 days, varying concentrations (FIG. 6)
Protocol: as §1
The PLAP expression AR42J cells constructed in Example 11 were suspended to a concentration of 10^5 cells/mL using Dulbecco's modified Eagle MEM medium containing 10% fetal calf serum and varying concentrations of the Met-77 residue betacellulin prepared in Example 3, the Met-76 residue betacellulin prepared in Example 6, or the Met-80 residue betacellulin prepared in accordance with the method in Japanese Unexamined Patent Application (Kokai) H10-191989. 100 μL of these suspensions were inoculated to 96 well plates and incubated for 5 days at 37° C. in carbon dioxide gas incubators (5% carbon dioxide gas, 95% air). After 5 days, the supernatant was taken and treated for 30 minutes at 65° C., and 50 μL was added to 96-well microplates containing 50 μL of 2×SEAP (2M diethanolamine, 1 mM MgCl2, 20 mM homoarginine). […]

[6] = system: AR42J cells; assay: β cell differentiation promoting activity using AR42J cells (anti-insulin immunofluorescence), Example 26; type: cell-based; details: 5 days incubation
Protocol: Cells of the AR42J cell line derived from pancreatic cancer induced by chemical carcinogens (Christophe, Am. J. Physiol., 266: G963 (1994)) were suspended to a concentration of 10^5 cells/mL in Dulbecco's modified Eagle MEM medium containing 10% fetal calf serum and one of hBTC50, Mutein A, Mutein B, or the 80-residue betacellulin (hBTC80) prepared in accordance with the method in Japanese Unexamined Patent Application (Kokai) H10-191989. 500 μL of these suspensions was inoculated on chamber slides and incubated for 5 days at 37° C. in carbon dioxide gas incubators (5% carbon dioxide gas, 95% air). After 5 days, the cells were washed once with PBS, fixed in 10% formaldehyde, and treated for 5 min with 0.1% Triton X-100. Block Ace (Snow Brand, Japan) was then added for 40 minutes of blocking at room temperature. Anti-insulin antibodies (by Advanced Immunochemicals) diluted with 10% Block Ace were added, and reacted for 40 minutes at room temperature. 0.1% Triton X-100 was added, the reaction solution was allowed to stand for 5 minutes at room temperature, and the cells were then washed three times with PBS. FITC (fluorescein isothiocyanate) labeled anti-mouse IgG antibodies (Cappel) diluted with 10% Block Ace were added, and a reaction was brought about for 40 minutes. 0.1% Triton X-100 was added, the reaction solution was allowed to stand for 5 minutes, the cells were then washed three times with PBS, and they were then observed under a fluorescent microscope.

[7] = molecular target: T2, EGF receptor on human squamous epithelial carcinoma cells A431 (human, UniProt P00533 25-1210); assay: competition with 0.25 nM 125I-EGF on A431 cells
T2 construct: whole, on cells; also called A431 cells (high EGF receptor expression line)
Protocol: The mixtures were allowed to stand for 90 minutes at 4° C., and then washed 3 times with 200 μL of binding medium, and the cells were lysed in 200 μL of 0.1 N sodium hydroxide aqueous solution containing 1% SDS.

Molecule: Met-BTC80: 80 residue human betacellulin (SEQ ID NO: 35) with N terminal Met, prepared by the method of Kokai H10-191989 [reference compound]
- PLAP activity (A 405), BTC added ([1]; clone AR1898-033, no BTC added: 0.034): 0.366 A 405
- PLAP activity (A 405), BTC added ([1]; clone AR1898-053, no BTC added: 0.008): 0.089 A 405
- PLAP activity (A 405), BTC added ([1]; clone AR1898-0192, no BTC added: 0.077): 0.752 A 405
- Differentiation into insulin-producing β cells (stained cells under fluorescent microscope) [2]: cells which had differentiated into insulin-producing β cells were found
- IC50 [3]: 1.2 nM
- EGF/BTC relative to Met-BTC80 [3]: 100.0%
- EC50 [4]: 0.07 nM

Molecule: BTC2-76: betacellulin mutein lacking one N terminal residue and four C terminal residues, SEQ ID NO: 37
- EC50 [4]: 0.12 nM

Molecule: BTC24-76: betacellulin mutein lacking 23 N terminal residues and four C terminal residues, SEQ ID NO: 38
- EC50 [4]: 0.03 nM

B1: Met-BTC76: 76 residue betacellulin lacking four C terminal residues (SEQ ID NO: 2) with N terminal Met (protein)
chain: DGNSTRSPETNGLLCGDPEENCAATTTQSKRKGHFSRCPKQYKHYCIKGRCRFVVAEQTPSCVCDEGYIGARCERV
modifications: N-terminal Met; Human
- Differentiation into insulin-producing β cells (stained cells under fluorescent microscope) [2]: cells which had differentiated into insulin-producing β cells were found
- Promoting activity in inducing differentiation compared with Met-80 residue betacellulin [5]: virtually the same promoting activity in inducing differentiation as the Met-80 residue betacellulin
- IC50 [3]: 95.1 nM
- EGF/BTC relative to Met-BTC80 [3]: 5.4%
- EC50 [4]: 0.3 nM

B2: Met-77 residue betacellulin: 77 residue betacellulin lacking three C terminal residues (SEQ ID NO: 1) with N terminal Met (protein)
chain: DGNSTRSPETNGLLCGDPEENCAATTTQSKRKGHFSRCPKQYKHYCIKGRCRFVVAEQTPSCVCDEGYIGARCERVD
modifications: N-terminal Met; Human
- Differentiation into insulin-producing β cells (stained cells under fluorescent microscope) [2]: cells which had differentiated into insulin-producing β cells were found
- Promoting activity in inducing differentiation compared with Met-80 residue betacellulin [5]: virtually the same promoting activity in inducing differentiation as the Met-80 residue betacellulin

B3: Met-80 residue betacellulin (ligand)
chain: MDGNSTRSPETNGLLCGDPEENCAATTTQSKRKGHFSRCPKQYKHYCIKGRCRFVVAEQTPSCVCDEGYIGARCERVDLFY
notes: Prepared in E. coli by the method of Japanese Kokai H10-191989; The N-terminal Met is retained; also called Met-BTC80; hBTC80
- Differentiation into insulin-producing β cells (stained cells under fluorescent microscope) ([6]; anti-insulin antibody/FITC staining): cells which had differentiated into insulin-producing β cells, were found
- Incidence of insulin-producing cells ([6]; comparison between the proteins): no differences in the incidence of insulin-producing cells
- IC50 [7]: 1.2 nM

B4: Met-76 residue betacellulin (ligand)
chain: MDGNSTRSPETNGLLCGDPEENCAATTTQSKRKGHFSRCPKQYKHYCIKGRCRFVVAEQTPSCVCDEGYIGARCERV
notes: Lacks the four C-terminal residues (Asp Leu Phe Tyr); also called Met-BTC76; BTC1-76
- IC50 [7]: 95.1 nM
